Biological target: Fibronectin 1 (FN1) (human (endogenous in C28/I2))
Test: proximity ligation; Duolink in situ PLA on decellularized, fixed matrix of C28/I2 WT cells cultured for 72 h; primary antibodies mouse anti-fibronectin or mouse anti-Col II with rabbit anti-ERp57; controls: matrix of ERp57 KO cells and omitted primary antibodies; some cultures incubated with 10 mM DTT for 15 min at 37°C before decellularization (PLA signal significantly decreased)

Chain of Fibronectin 1 (FN1) (human (endogenous in C28/I2)) (P02751 32-2477): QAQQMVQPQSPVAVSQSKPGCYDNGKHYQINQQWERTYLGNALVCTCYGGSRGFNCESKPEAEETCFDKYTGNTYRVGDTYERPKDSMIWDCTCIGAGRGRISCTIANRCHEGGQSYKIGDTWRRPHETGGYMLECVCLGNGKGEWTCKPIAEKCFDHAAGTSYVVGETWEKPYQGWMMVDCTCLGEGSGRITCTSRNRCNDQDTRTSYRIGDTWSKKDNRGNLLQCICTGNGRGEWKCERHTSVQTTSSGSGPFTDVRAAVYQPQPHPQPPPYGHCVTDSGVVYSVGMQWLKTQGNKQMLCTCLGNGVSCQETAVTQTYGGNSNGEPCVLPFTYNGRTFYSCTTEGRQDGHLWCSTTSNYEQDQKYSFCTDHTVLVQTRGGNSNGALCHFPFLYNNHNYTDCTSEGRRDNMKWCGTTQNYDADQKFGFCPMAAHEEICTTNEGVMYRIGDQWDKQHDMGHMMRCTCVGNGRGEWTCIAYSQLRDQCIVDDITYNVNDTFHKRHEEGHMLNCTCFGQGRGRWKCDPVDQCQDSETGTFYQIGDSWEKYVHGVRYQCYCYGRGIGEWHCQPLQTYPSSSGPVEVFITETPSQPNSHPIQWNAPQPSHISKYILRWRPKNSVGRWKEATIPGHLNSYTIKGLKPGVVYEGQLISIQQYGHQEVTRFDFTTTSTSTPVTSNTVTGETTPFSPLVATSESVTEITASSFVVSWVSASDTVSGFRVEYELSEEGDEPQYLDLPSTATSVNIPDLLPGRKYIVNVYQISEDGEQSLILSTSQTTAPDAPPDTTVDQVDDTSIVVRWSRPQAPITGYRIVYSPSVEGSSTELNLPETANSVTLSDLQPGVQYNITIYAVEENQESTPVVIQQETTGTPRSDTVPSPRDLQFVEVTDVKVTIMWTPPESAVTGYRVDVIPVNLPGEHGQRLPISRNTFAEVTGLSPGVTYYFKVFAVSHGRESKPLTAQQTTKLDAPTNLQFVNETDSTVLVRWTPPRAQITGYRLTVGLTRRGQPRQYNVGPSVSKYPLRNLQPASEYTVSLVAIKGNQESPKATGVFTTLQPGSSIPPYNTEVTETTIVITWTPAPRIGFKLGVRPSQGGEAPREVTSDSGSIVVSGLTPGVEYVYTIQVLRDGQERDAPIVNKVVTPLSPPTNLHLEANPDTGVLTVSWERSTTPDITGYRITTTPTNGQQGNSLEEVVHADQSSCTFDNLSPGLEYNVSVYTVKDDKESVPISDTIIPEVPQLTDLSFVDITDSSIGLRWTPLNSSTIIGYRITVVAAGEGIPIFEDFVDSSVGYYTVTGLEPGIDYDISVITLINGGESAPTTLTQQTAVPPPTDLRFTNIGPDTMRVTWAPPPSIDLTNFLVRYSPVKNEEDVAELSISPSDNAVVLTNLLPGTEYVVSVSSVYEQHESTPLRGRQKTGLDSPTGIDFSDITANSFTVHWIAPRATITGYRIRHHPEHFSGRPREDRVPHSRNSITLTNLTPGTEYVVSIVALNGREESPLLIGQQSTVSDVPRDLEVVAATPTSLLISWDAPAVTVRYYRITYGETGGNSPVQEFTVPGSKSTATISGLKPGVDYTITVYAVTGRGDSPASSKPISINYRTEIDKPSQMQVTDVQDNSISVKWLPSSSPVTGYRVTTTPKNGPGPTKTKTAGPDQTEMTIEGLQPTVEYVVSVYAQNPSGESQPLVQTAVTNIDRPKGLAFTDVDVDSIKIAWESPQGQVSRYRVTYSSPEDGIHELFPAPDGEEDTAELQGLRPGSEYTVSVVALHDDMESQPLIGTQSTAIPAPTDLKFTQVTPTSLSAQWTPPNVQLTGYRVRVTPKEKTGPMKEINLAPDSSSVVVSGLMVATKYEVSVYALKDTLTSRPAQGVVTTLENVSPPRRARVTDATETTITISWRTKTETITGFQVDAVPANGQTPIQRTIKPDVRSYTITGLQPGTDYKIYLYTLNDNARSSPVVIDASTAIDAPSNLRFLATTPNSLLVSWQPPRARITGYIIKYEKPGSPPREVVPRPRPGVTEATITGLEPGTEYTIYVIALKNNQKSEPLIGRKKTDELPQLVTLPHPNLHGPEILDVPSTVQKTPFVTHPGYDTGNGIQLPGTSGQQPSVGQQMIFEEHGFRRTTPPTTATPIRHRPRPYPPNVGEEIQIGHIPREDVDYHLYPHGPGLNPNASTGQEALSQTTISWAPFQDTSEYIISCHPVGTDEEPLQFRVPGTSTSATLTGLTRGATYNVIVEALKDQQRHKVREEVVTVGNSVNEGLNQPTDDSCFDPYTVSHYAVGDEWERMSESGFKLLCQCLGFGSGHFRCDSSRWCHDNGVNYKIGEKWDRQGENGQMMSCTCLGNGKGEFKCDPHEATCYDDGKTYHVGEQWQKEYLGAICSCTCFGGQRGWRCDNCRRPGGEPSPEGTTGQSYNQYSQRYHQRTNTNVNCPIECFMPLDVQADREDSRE

“endoplasmic reticulum protein 57 (ERp57) (from UniProt P30101 25-505) (enzyme)” gave a PLA mean staining intensity of 0.284.
